How the values were obtained:
[1] = tested on: A5-9 cells; experiment: Puromycin sensitivity of the parent strain; type: cell-based, mouse
Source text: (§1) The DNA that controls the production of Aβ is investigated as follows. First, the DNA library is transfected to the cell line where the two recombinant gene constructs described above are introduced (hereinafter referred to as the parent strain). Thereafter, for example, when a drug resistant gene is used as the selection marker, a cell bearing the DNA to enhance the concentration of the corresponding drug and become resistant in the presence of the drug even at a high concentration is selected. […]
(§2) The A5-9 cells or A5-9-PS1 cells described in EXAMPLE 4, to which the human hippocampus cDNA library was transfected through the infection with retrovirus, were cultured in the presence of puromycin of a high concentration (A5-9 cells, 25 μg/ml; A5-9-PS1 cells, 9 μg/ml). […] The concentrations of puromycin used were determined based on the respective minimum puromycin concentrations of 20 μg/ml and 5 μg/ml, at which the A5-9 cells and A5-9-PS1 cells as the parent strain were extinct. […] That is, Aβ was detected as follows. The Aβ secreted in a medium by incubation for 3 days (initial cell concentration of 2×10^5 cells/ml, medium of 3 ml) was immunoprecipitated by anti-Aβ monoclonal antibody 6E10 and the deposits were detected by high sensitive western blotting using anti-Aβ antibody. […]

[2] = tested on: A5-9-PS1 cells; experiment: Puromycin sensitivity of the parent strain; type: cell-based, mouse
Source text: as §1, §2

[3] = tested on: HEK293 cells where APP and PS1 were overexpressed; experiment: Aβ secreted into the medium by HEK293 cells transfected with cDNA in pcDNA3, assayed by ELISA; type: cell-based; conditions: for Fold increase in Aβ42 versus vector control: rate of increase compared to vector-alone control
Source text: From the clones selected in EXAMPLE 5 above to increase the production of Aβ, human hippocampus-derived cDNA was amplified by PCR using virus vector pMX sites as primers (which were identified to be sense strand primer, SEQ ID NO: 16; […] and antisense strand primer, SEQ ID NO: 17; […]). The cDNA obtained was ligated with vector pcDNA3 (Invitrogen, Inc.), which was transfected to 4×10^5 cells of HEK293 cells (Tomita S., et al., J. Biol. Chem. 273: 19304-19310, 1998; Tomita S., et al., J. Biol. Chem. 275: 13056-13060, 2000) where APP and PS1 were overexpressed. One day after, the medium was changed to a new medium followed by incubation for 24 hours. The amount of Aβ selected in the medium was assayed by ELISA (Asami-Odaka, A. et al., 34:10272, 1995). It was found so far that 3 kinds of human hippocampus-derived cDNAs increased the amount of Aβ produced (TABLE 2). One of them was identified to be identical with human cDNA (accession No. AAH06223) registered in Genbank. In the following procedures of the present invention, this cDNA was named gene A (SEQ ID NO: 4) and the protein encoding the cDNA was named Protein A (SEQ ID NO: 1). […] The one found to be a gene to control the production of Aβ was a protein, Herp (Kokame K. et al., J. Biol. Chem. 275: 3286, 2000; accession no. AB034989) (cDNA: SEQ ID NO: 5, protein: SEQ ID NO: 2), which was localized in the endoplasmic reticulum and its expression was induced by endoplasmic reticulum stress but its function was unknown. Further the other one found to be a gene to control the production of Aβ was cDNA (cDNA: SEQ ID NO: 6, protein: SEQ ID NO: 3) containing the 1-389 internal sequence from the N terminus of 5-lipoxygenase (accession no. XM 005818).

[4] = Aβ in medium after 24 hours incubation, mean of 2 samples, vector control value in parenthesis

Molecule | minimum puromycin concentration at which the cells were extinct [1] | minimum puromycin concentration at which the cells were extinct [2] | Aβ40 Concentration [pM] [3, 4] | Aβ42 Concentration [pM] [3, 4] | Fold increase in Aβ42 versus vector control ([3]; column beside the Aβ40 concentration) | Fold increase in Aβ42 versus vector control ([3]; column beside the Aβ42 concentration)
COc1ccc(C[C@H](N)C(=O)N[C@H]2[C@@H](O)[C@H](n3cnc4c(N(C)C)ncnc43)O[C@@H]2CO)cc1 [puromycin] | 20 µg/mL | 5 µg/mL |  |  |  | 
Protein A: human cDNA (Genbank AAH06223, SEQ ID NO: 4) encoding Protein A (SEQ ID NO: 1), function unknown (nucleic acid, Human) DNA: ATGTCGACGGCGGCGGTTCCGGAGCTGAAGCAGATCAGCCGGGTGGAGGCGATGCGCCTAGGGCCGGGCTGGAGCCACTCGTGCCACGCCATGCTGTACGCCGCCAACCCTGGGCAGCTCTTCGGCCGCATCCCCATGCGCTTCTCGGTGCTGATGCAGATGCGTTTCGACGGGCTGCTGGGCTTCCCCGGGGGCTTCGTGGACCGGCGCTTCTGGTCGCTGGAGGACGGCCTGAACCGGGTGCTGGGCCTGGGCCTGGGCTGCCTGCGCCTCACCGAGGCCGACTACCTGAGCTCGCACCTGACCGAGGGCCCACACCGCGTCGTGGCGCACCTGTACGCGCGGCAGCTGACGCTGGAGCAGCTGCACGCCGTGGAGATCAGCGCGGTGCACTCGCGCGACCACGGCCTGGAGGTGCTGGGCCTCGTGCGGGTCCCGCTGTACACCCAGAAGGACCGAGTCGGAGGCTTCCCCAACTTCCTGAGCAACGCCTTCGTGAGCACGGCTAAGTGCCAGCTCCTCTTTGCCCTCAAGGTGCTCAACATGATGCCCGAGGAGAAGCTGGTTGAGGCCCTGGCTGCAGCCACCGAGAAGCAGAAGAAGGCCCTGGAGAAGTTGCTCCCGGCCTCCTCT |  |  | 378 ± 10 (232 ± 34) pM | 88 ± 22 (45 ± 2) pM | 1.6 | 2.0
